Test results taken from publication PMC8217511, “Tuning SAS-6 architecture with monobodies impairs distinct steps of centriole assembly” (Nature Communications, 2021).
Where a chain is given by its changes, count along the chain named. In names and notes the source's numbering stands.

B1: CrSAS-6_NL, N-terminal head domain and the entire coiled-coil of Chlamydomonas reinhardtii SAS-6 (domain or fragment, UniProt A9CQL4 1-503, looked up)
chain: MPLLLDDGDPKAQTGFDLSTATTLFWRPVPVHVKQQDREDVLEELTFRILTGVAKQNHNLRILRIHISSDSDLFFLHTLEVSEEDFQSLKNDQGILVDFASFPGKIISLLEKCILAQPGDSPRFQAVLTIRGGESVFKIVEINDFKQLPHITLAFRPGNDSVVKQFLAFRLSEVKGTCHDLSDDLSRTRDDRDSMVAQLAQCRQQLAQLREQYDKHLLEVQAQAKTQQASAHEERIREKSQLKDQFEKERGEMEGRYRDQIAALNTRLGELDTENRKLREVKYELDTKVSELSHKLGSSEGSNRSLEEETARLRSLNQQLSSSKHELEIQLNEAKAKVLALDEKAQSQGDVIEQQRGRLRDMEAALRQTEQRCADLRDTLASAEGRAKEAQAEVLKGNQAIEKLTNDLRLAKEKTKRKAAIILRQEEELQEREQSLANATRDVGVLGQQAESLRKDVASLHSENDSLRSKLEDSKQQLQSNEQMIRWLNQQVTEAQLHASGAT
notes: SAS-6 of Chlamydomonas reinhardtii, N-terminal head domain and entire coiled-coil, residues 1-503; pFLOAT2-His vector, PreScission Protease site after the His tag; homodimers that assemble into ring polymers; source: E. coli BL21(DE3), purified (HisTrap, SEC)
B2: CrSAS-6_N, N-terminal globular domain of Chlamydomonas reinhardtii SAS-6 (domain or fragment, UniProt A9CQL4 1-159, looked up)
chain: MPLLLDDGDPKAQTGFDLSTATTLFWRPVPVHVKQQDREDVLEELTFRILTGVAKQNHNLRILRIHISSDSDLFFLHTLEVSEEDFQSLKNDQGILVDFASFPGKIISLLEKCILAQPGDSPRFQAVLTIRGGESVFKIVEINDFKQLPHITLAFRPGN
notes: SAS-6 of Chlamydomonas reinhardtii, N-terminal globular head domain, residues 1-159 (the methods list the two ranges in the reverse order of the two names); source: E. coli BL21(DE3), purified (HisTrap, tag cleavage by protease, SEC); not shown: His6, N-terminal, cleaved; AVI-tag, N-terminal, cleaved
B3: CrSAS-6_6HR-[F145E] (domain or fragment, Chlamydomonas reinhardtii, UniProt A9CQL4 1-226, looked up)
chain: MPLLLDDGDPKAQTGFDLSTATTLFWRPVPVHVKQQDREDVLEELTFRILTGVAKQNHNLRILRIHISSDSDLFFLHTLEVSEEDFQSLKNDQGILVDFASFPGKIISLLEKCILAQPGDSPRFQAVLTIRGGESVFKIVEINDEKQLPHITLAFRPGNDSVVKQFLAFRLSEVKGTCHDLSDDLSRTRDDRDSMVAQLAQCRQQLAQLREQYDKHLLEVQAQAKT
notes: SAS-6 of Chlamydomonas reinhardtii, residues 1-226 (limits as for CrSAS-6_6HR) with F145E; arranged as homodimers in the crystal; also called CrSAS-6_6HR harboring the mutation F145E; source: E. coli BL21(DE3), purified (HisTrap, tag cleavage by protease, SEC); not shown: His6, N-terminal, cleaved; AVI-tag, N-terminal, cleaved
B4: CrSAS-6_6HR, N-terminal domain and six heptad repeats of the coiled-coil of Chlamydomonas reinhardtii SAS-6 (domain or fragment, UniProt A9CQL4 1-226, looked up)
chain: B3 chain with E145F
notes: homodimer through the coiled-coil; source: E. coli BL21(DE3), purified (HisTrap, tag cleavage by protease, SEC); not shown: His6, N-terminal, cleaved; AVI-tag, N-terminal, cleaved

Columns and labels:
[1] = biological target: the molecule itself; test: PORT-HS-AFM; CrSAS-6_NL adsorbed on mica, 11-16 nM (equilibrium) or 44 nM (assembly reaction); 150 mM KCl, 20 mM Tris-HCl pH 8.0; monobodies at 6.8 µM, 14.5 µM and 12.9 µM
[2] = biological target: the molecule itself; test: crystal structure; CrSAS-6 combined with a 2x molar excess of monobody, complex purified by SEC; sitting drop vapor diffusion at 18 °C

| Protein | binding result [1] | binding result [2] |
| --- | --- | --- |
| B1 | binds | – |
| B2 | – | binds |
| B3 | – | binds |
| B4 | – | binds |
